# Reference: US20200055939A1 (Genentech, published 2020)
# T1: P294A
# T1 construct: % monomer 89.16; also called MICA*008.mIgG2a P294A
# T1 chain: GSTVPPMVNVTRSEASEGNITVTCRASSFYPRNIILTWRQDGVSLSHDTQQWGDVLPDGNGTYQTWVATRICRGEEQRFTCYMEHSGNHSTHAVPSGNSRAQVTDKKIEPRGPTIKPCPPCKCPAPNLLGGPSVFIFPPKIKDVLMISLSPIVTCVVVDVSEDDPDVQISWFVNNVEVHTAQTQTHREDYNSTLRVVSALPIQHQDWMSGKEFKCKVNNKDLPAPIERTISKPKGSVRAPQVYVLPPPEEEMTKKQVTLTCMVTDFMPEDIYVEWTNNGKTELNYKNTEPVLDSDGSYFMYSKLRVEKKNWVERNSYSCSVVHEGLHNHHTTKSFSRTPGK
# T2: P296A
# T2 construct: % monomer 92.3; also called MICA*008.mIgG2a P296A
# T2 chain: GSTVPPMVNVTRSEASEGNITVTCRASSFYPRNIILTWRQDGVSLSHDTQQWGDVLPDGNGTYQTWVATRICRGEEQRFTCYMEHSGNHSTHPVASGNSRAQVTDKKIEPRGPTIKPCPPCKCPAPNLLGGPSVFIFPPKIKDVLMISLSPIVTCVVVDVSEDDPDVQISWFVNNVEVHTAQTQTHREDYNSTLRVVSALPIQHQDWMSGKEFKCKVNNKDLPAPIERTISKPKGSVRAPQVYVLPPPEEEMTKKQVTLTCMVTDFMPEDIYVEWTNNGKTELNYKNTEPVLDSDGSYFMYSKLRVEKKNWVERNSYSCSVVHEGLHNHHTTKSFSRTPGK
# T3: Q278A
# T3 construct: % monomer 92.32; also called MICA*008.mIgG2a Q278A
# T3 chain: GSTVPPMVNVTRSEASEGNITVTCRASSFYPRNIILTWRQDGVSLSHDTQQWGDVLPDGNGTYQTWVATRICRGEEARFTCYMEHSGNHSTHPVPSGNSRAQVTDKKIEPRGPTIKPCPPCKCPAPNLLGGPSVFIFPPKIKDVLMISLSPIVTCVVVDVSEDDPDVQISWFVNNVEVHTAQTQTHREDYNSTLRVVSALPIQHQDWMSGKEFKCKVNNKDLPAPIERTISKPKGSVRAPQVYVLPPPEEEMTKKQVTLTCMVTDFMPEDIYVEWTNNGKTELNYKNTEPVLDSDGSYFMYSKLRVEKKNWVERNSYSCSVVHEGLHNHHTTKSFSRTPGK
# T4: T238A
# T4 construct: % monomer 96; also called MICA*008.mIgG2a T238A
# T4 chain: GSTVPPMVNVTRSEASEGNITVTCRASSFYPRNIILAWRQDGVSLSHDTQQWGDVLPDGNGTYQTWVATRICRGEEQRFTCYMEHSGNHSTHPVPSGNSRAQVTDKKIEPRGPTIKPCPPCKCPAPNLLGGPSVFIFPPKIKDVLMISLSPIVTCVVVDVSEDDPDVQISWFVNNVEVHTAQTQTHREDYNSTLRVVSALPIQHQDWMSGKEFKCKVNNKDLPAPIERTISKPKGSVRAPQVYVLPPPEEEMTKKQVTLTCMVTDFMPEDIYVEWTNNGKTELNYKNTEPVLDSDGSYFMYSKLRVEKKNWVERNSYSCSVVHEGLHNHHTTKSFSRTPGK
# T5: G288A
# T5 construct: % monomer 95.3; also called MICA*008.mIgG2a G288A
# T5 chain: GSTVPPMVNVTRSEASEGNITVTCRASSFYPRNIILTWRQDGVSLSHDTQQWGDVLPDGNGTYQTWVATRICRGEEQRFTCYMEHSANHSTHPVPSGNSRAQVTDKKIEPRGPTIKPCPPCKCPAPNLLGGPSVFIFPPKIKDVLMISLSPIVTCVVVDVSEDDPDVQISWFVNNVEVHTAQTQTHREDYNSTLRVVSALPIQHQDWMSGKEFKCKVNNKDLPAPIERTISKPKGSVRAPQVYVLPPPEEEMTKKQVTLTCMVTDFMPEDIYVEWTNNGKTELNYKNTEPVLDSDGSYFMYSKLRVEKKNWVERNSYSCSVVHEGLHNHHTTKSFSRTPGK
# T6: S297A
# T6 construct: % monomer 89.24; also called MICA*008.mIgG2a S297A
# T6 chain: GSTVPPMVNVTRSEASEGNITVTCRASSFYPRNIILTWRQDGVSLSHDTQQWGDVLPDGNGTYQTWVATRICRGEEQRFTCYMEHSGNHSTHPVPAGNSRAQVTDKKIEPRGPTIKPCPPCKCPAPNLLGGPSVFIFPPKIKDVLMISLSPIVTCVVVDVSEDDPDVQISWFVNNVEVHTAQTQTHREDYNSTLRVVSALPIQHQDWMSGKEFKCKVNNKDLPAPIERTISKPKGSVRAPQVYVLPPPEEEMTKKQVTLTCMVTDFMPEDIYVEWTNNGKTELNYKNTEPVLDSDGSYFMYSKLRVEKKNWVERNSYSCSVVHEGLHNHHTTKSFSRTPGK
# T7: E276A
# T7 construct: % monomer 86.14; also called MICA*008.mIgG2a E276A
# T7 chain: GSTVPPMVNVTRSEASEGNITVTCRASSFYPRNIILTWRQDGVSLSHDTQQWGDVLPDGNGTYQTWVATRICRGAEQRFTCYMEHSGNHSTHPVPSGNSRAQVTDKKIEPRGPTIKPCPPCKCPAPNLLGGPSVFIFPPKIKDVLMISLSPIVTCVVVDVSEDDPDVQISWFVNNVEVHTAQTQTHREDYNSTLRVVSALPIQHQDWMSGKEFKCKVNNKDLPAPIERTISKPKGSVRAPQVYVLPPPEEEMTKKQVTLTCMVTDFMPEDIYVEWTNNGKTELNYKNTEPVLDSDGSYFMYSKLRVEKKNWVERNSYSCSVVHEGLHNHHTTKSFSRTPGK
# Columns and labels:
# Assay in all cases: SPR, Fab over captured MICA*008.mIgG2a Ala variant; KD relative to wild type
# P294A = target: T1, P294A
# P296A = target: T2, P296A
# Q278A = target: T3, Q278A
# T238A = target: T4, T238A
# G288A = target: T5, G288A
# S297A = target: T6, S297A
# E276A = target: T7, E276A
Binder,fold-decrease in affinity (P294A),fold-decrease in affinity (P296A),fold-decrease in affinity (Q278A),fold-decrease in affinity (T238A),fold-decrease in affinity (G288A),fold-decrease in affinity (S297A),fold-decrease in affinity (E276A)
"6F8.7 Fab (Fab, V domains shown) VH: DVQLQGSGPGLVKPSQSLSLTCSVTGYSITNDYYWNWIRQFPGNKLEWMGFISFGGSNNYNPSLKNRISITRDTSKNQFFLKLSSVTTEDTATYYCARYDGRGAWFAYWAQGTLVTVSA VL: DIQMTQSPASLSASVGETVTITCRASGNIHNYLAWYQQKQGKSPQLLVYDAITLADGVPSRFSGSGSGTQYSLKINSLQPEDFGNYYCQHFWSFPLTFGAGTKVEIK",0.9,1,0.5,0.1,1,1,4.3
"1D5 Fab (Fab, V domains shown, Expressed in E. coli as chimera of murine variable and human constant domains; not shown: human IgG1 CH1 constant domain; human kappa CL constant domain) VH: EIQLQQSGPELVKPGASVKVSCKASGYAFTSQNIYWVKQSHGKSLEWIGYIEPYNVVPMYNPKFKGKATLTVDKSSSSAYIHLNSLTSEDSAIYYCARSGSSNFDYWGQGTTLTVSS VL: EIILTQSPTTMAASPGEKITITCSASSSISSHYLHWYQQKSGFSPKLLIYRTSNLASGVPARFSGSGSGTSYSLTIGTMEAEDVATYYCQQGSSLPLTFGAGTKVEIK",1,1.9,0.7,0.4,1,0.05,22
"7D4.6 Fab (Fab, V domains shown) VH: DVQLQESGPGLVKPSQSLSLTCTVTGYSITSDYAWNWIRQFPRNKLEWMGYINYSGTTNYNPSLKSRISITRDTSKNQFFLQLISVTTEDTATYYCSYYRYDGAWFPYWGQGTLVTVSA VL: DIQMTQSPASLSASVGETVTITCRASGNIHNYLAWYQQKQGKSPQLLVYNAIMLADGVPSRFSASGSGTQYSLKINSLQPEDFGSYYCQHFWSFPLTFGAGTKVEIK",1,0.7,4.9,0.1,0.8,1.1,0.7
"2E5.2.3 Fab (Fab, V domains shown) VH: QGQMQQSGAELVKPGASVKLSCKTSGFTFSDNYISWLKQKPGQSLEWIAWIYAGTGGTSYNQKFTAKAQLTVDTSSSTAYMQFSSLTTEDSAIYYCARHDYYGTSGAWFAYWGQGTLVTVSA VL: DVLMTQTPLSLPVSLGDQASLSCRSSQNIVHINGNTYLEWYLQKPGQSPKLLIYKVSNRFSGVPDRFSGSGSGTDFTLKISRVEAEDLGVYYCFQGSHVPWTFGGGTKVEIK",1,0.6,1,1.3,0.6,1.2,1.2
